B1: Golgi SNAP receptor complex member 2 (Homo sapiens), O14653 (parent)
chain: MDPLFQQTHKQVHEIQSCMGRLETADKQSVHIVENEIQASIDQIFSRLERLEILSSKEPPNKRQNARLRVDQLKYDVQHLQTALRNFQHRRHAREQQERQREELLSRTFTTNDSDTTIPMDESLQFNSSLQKVHNGMDDLILDGHNILDGLRTQRLTLKGTQKKILDIANMLGLSNTVMRLIEKRAFQDKYFMIGGMLLTCVVMFLVVQYLT
B2: Ceroid-lipofuscinosis neuronal protein 6 (Homo sapiens), Q9NWW5 (parent)
chain: MEATRRRQHLGATGGPGAQLGASFLQARHGSVSADEAARTAPFHLDLWFYFTLQNWVLDFGRPIAMLVFPLEWFPLNKPSVGDYFHMAYNVITPFLLLKLIERSPRTLPRSITYVSIIIFIMGASIHLVGDSVNHRLLFSGYQHHLSVRENPIIKNLKPETLIDSFELLYYYDEYLGHCMWYIPFFLILFMYFSGCFTASKAESLIPGPALLLVAPSGLYYWYLVTEGQIFILFIFTFFAMLALVLHQKRKRLFLDSNGLFLFSSFALTLLLVALWVAWLWNDPVLRKKYPGVIYVPEPWAFYTLHVSSRH
partner: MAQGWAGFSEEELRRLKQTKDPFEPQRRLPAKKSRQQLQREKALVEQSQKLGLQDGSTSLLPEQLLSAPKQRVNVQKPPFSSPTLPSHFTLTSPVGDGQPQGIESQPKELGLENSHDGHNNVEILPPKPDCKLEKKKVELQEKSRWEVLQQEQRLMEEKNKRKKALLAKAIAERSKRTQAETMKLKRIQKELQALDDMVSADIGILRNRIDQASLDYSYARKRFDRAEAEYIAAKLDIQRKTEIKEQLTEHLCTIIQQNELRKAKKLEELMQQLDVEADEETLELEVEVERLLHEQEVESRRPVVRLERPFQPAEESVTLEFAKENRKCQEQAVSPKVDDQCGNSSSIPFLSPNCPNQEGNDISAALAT
B3: Catenin alpha-3 (Homo sapiens), Q9UI47-2 (parent)
chain: MSAETPITLNIDPQDLQVQTFTVEKLLEPLIIQVTTLVNCPQNPSSRKKGRSKRASVLLASVEEATWNLLDKGEKIAQEATVLKDELTASLEEVRKESEALKVSAERFTDDPCFLPKREAVVQAARALLAAVTRLLILADMIDVMCLLQHVSAFQRTFESLKNVANKSDLQKTYQKLGKELENLDYLAFKRQQDLKSPNQRDEIAGARASLKENSPLLHSICSACLEHSDVASLKASKDTVCEEIQNALNVISNASQGIQNMTTPPEPQAATLGSALDELENLIVLNPLTVTEEEIRPSLEKRLEAIISGAALLADSSCTRDLHRERIIAECNAIRQALQDLLSEYMNNAGKKERSNTLNIALDNMCKKTRDLRRQLRKAIIDHVSDSFLDTTVPLLVLIEAAKNGREKEIKEYAAIFHEHTSRLVEVANLACSMSTNEDGIKIVKIAANHLETLCPQIINAALALAARPKSQAVKNTMEMYKRTWENHIHVLTEAVDDITSIDDFLAVSGMFLFF
partner: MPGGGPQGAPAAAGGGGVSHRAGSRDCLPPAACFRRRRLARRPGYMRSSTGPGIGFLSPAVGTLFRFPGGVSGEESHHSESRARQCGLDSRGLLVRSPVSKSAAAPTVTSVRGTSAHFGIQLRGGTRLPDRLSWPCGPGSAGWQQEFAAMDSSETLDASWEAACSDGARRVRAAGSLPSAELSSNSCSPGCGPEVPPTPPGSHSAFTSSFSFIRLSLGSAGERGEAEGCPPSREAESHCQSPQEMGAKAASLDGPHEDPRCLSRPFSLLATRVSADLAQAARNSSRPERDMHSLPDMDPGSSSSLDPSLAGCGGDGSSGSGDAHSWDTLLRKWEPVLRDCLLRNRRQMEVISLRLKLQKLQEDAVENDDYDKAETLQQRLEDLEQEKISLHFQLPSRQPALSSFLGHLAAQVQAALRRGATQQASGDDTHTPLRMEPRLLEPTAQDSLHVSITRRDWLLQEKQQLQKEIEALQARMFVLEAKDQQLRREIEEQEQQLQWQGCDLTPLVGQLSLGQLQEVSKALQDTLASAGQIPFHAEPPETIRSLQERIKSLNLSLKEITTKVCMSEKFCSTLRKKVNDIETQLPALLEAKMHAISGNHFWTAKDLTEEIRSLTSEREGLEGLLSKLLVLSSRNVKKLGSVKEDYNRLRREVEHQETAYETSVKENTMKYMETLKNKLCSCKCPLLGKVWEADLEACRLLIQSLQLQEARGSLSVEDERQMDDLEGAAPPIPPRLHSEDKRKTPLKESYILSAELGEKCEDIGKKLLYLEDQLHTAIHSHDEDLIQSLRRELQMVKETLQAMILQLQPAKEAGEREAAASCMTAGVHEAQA
B4: Golgi SNAP receptor complex member 2 (Homo sapiens), O14653 (parent)
chain: B1 chain
partner: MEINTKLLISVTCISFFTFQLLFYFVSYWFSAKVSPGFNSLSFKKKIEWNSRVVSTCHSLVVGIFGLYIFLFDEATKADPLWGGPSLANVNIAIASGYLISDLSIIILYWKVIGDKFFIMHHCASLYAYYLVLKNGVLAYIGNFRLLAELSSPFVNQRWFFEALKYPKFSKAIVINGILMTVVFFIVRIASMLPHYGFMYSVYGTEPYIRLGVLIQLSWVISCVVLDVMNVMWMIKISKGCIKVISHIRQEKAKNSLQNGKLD
B5: Golgi SNAP receptor complex member 2 (Homo sapiens), O14653 (parent)
chain: B1 chain
partner: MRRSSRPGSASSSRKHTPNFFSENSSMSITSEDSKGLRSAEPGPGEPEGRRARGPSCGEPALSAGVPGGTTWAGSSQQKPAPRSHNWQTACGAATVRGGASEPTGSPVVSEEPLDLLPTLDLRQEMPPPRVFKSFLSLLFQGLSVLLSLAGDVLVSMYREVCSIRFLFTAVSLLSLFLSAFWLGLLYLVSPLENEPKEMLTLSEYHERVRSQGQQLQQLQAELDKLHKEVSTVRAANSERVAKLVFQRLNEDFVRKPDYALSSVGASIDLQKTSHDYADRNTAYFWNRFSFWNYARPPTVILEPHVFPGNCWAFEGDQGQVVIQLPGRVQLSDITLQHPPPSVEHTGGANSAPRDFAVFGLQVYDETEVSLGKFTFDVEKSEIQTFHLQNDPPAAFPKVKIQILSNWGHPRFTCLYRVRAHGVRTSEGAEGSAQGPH
B6: Ceroid-lipofuscinosis neuronal protein 6 (Homo sapiens), Q9NWW5 (parent)
chain: B2 chain
partner: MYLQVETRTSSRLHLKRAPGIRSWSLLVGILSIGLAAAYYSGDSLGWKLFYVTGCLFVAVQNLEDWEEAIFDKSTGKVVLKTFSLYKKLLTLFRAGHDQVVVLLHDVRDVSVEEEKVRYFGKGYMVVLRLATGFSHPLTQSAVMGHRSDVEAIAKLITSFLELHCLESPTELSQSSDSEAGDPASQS

Variants of: B1
Conditions: with stx4_human STX4, Q12846
stx4_human STX4, Q12846, sequence (Q12846 whole entry): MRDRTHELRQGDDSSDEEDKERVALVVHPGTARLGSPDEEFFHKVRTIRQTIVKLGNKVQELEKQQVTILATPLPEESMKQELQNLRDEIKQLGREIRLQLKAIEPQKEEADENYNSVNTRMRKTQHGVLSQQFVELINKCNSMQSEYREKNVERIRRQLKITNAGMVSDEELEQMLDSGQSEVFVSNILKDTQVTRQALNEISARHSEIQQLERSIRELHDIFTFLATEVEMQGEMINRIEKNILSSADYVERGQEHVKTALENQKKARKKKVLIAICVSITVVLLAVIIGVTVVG
In the case of G144W, the “effect of a mutation on the interaction” value is reported as “with no effect”.

Variants of: B1
Conditions: with stx1a_human STX1A
For G144W, the “effect of a mutation on the interaction” value was “with no effect”.

Variants of: B1
Conditions: with retr3_human RETREG3, Q86VR2
retr3_human RETREG3, Q86VR2, sequence (Q86VR2 whole entry): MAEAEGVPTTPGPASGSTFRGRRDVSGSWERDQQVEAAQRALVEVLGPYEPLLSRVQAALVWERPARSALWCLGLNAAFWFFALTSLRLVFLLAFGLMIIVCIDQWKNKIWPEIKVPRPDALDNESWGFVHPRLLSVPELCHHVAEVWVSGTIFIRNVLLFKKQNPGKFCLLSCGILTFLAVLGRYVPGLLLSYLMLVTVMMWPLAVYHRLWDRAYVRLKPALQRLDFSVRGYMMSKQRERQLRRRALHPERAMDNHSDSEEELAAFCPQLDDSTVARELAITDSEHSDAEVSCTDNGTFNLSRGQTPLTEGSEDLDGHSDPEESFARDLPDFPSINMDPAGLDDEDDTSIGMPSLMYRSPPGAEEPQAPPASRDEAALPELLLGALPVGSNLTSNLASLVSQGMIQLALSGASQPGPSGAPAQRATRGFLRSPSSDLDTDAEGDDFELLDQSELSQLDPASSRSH
G144W was tested, and the “effect of a mutation on the interaction” value was “with no effect”.

Variants of: B1
Conditions: with tm205_human TMEM205, Q6UW68
tm205_human TMEM205, Q6UW68, sequence (Q6UW68 whole entry): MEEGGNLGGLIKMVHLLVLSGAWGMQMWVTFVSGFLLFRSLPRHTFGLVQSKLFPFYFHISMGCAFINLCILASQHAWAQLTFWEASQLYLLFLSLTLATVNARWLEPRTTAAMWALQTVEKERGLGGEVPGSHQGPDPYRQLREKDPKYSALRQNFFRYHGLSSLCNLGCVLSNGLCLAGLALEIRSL
For G144W, the “effect of a mutation on the interaction” value was “with no effect”.

Variants of: B1
Conditions: with ebp_human EBP
In the case of G144W, the “effect of a mutation on the interaction” value is reported as “with no effect”.

Variants of: B1
Conditions: with gp152_human GPR152, Q8TDT2
gp152_human GPR152, Q8TDT2, sequence (Q8TDT2 whole entry): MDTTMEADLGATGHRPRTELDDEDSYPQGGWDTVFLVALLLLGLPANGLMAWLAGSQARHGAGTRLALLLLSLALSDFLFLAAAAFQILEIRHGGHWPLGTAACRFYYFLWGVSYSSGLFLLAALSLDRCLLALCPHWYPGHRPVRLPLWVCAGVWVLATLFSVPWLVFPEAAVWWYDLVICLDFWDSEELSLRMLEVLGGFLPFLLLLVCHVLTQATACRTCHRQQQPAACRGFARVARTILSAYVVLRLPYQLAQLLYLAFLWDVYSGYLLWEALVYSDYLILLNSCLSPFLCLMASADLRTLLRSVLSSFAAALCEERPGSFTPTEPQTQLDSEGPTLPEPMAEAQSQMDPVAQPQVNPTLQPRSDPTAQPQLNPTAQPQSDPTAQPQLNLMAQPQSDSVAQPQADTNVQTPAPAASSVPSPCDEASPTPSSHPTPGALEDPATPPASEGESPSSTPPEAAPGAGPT
For G144W, the “effect of a mutation on the interaction” value was “with no effect”.

Variants of: B1
Conditions: with ar13b_human ARL13B
In the case of G144W, the “effect of a mutation on the interaction” value is reported as “disrupting interaction strength”.

Variants of: B2
Conditions: with gorab_human GORAB
For L47F, the “effect of a mutation on the interaction” value was “with no effect”. For G123D, the “effect of a mutation on the interaction” value was “with no effect”. In the case of R6T, the “effect of a mutation on the interaction” value is reported as “with no effect”.

Variants of: B3
Conditions: with DISC1, Q9NRI5-2
For V94D, the “effect of a mutation on the interaction” value was “disrupting interaction strength”.

Variants of: B4
Conditions: with tlcd4_human TLCD4, Q96MV1
With G144W the “effect of a mutation on the interaction” value was “with no effect”.

Variants of: B5
Conditions: with spag4_human SPAG4, Q9NPE6
G144W was tested, and the “effect of a mutation on the interaction” value was “with no effect”.

Variants of: B6
Conditions: with cybc1_human CYBC1, Q9BQA9
For R6T, the “effect of a mutation on the interaction” value was “disrupting interaction strength”.

Reference: IntAct's records for PubMed 32296183
